Laboratory results taken from patent US10738094B2, “Peptides and combination of peptides for use in immunotherapy against ovarian cancer and other cancers” (immatics biotechnologies GmbH, priority 2015, dated 2020).

Target: HLA-A*02:01 (Homo sapiens, UniProt P04439, D140Y/D185E/D98H/E176V/E277Q/G131W/G231S/I119V/I121R/I166T/I218V/L300P/L318F/N151K/N90K/P208A/P217A/Q86G/Q94H/R138H/R169H/T345S)
Assay: MHC binding assay (UV-ligand exchange, beta2m ELISA)
Settings: binding to HLA-A*02:01 ranged by peptide exchange yield (UV-ligand exchange, β2m ELISA)
Text: Candidate peptides for T cell based therapies according to the present invention were further tested for their MHC binding capacity (affinity). The individual peptide-MHC complexes were produced by UV-ligand exchange, where a UV-sensitive peptide is cleaved upon UV-irradiation, and exchanged with the peptide of interest as analyzed. Only peptide candidates that can effectively bind and stabilize the peptide-receptive MHC molecules prevent dissociation of the MHC complexes. To determine the yield of the exchange reaction, an ELISA was performed based on the detection of the light chain (β2m) of stabilized MHC complexes. The assay was performed as generally described in Rodenko et al. (Rodenko et al., 2006).
96 well MAXISorp plates (NUNC) were coated over night with 2 ug/ml streptavidin in PBS at room temperature, washed 4× and blocked for 1 h at 37° C. in 2% BSA containing blocking buffer. […] Peptide-MHC monomers of the UV-exchange reaction were diluted 100 fold in blocking buffer. Samples were incubated for 1 h at 37° C., washed four times, incubated with 2 ug/ml HRP conjugated anti-β2m for 1 h at 37° C., washed again and detected with TMB solution that is stopped with […]. Absorption was measured at 450 nm. Candidate peptides that show a high exchange yield (preferably higher than 50%, most preferred higher than 75%) are generally preferred for a generation and production of antibodies or fragments thereof, and/or T cell receptors or fragments thereof, as they show sufficient avidity to the MHC molecules and prevent dissociation of the MHC complexes.

Substance | Peptide exchange
87 (ALPEAPAPLLPHIT; listed as Homo sapiens) [compound 87] | “++” (≥20% = ++)
88 (FLLVGDLMAV; listed as Homo sapiens) [compound 88] | “+++” (≥50 = +++)
89 (YILPTETIYV; listed as Homo sapiens) [compound 89] | “++++” (≥75% = ++++)
90 (TLLQIIETV; listed as Homo sapiens) [compound 90] | “+++” (≥50 = +++)
91 (IMQDFPAEIFL; listed as Homo sapiens) [compound 91] | “++++” (≥75% = ++++)
92 (YLIPFTGIVGL; listed as Homo sapiens) [compound 92] | “++” (≥20% = ++)
93 (LLQAIKLYL; listed as Homo sapiens) [compound 93] | “++” (≥20% = ++)
94 (YLIDIKTIAI; listed as Homo sapiens) [compound 94] | “++” (≥20% = ++)
95 (SVIPQIQKV; listed as Homo sapiens) [compound 95] | “+++” (≥50 = +++)
96 (YIFTDNPAAV; listed as Homo sapiens) [compound 96] | “+++” (≥50 = +++)
97 (SLINGSFLV; listed as Homo sapiens) [compound 97] | “+++” (≥50 = +++)
98 (LIIDQADIYL; listed as Homo sapiens) [compound 98] | “+++” (≥50 = +++)
99 (ALVSKGLATV; listed as Homo sapiens) [compound 99] | “++” (≥20% = ++)
100 (YLLSTNAQL; listed as Homo sapiens) [compound 100] | “++++” (≥75% = ++++)
101 (ILVGGGALATV; listed as Homo sapiens) [compound 101] | “+++” (≥50 = +++)
102 (YLFESEGLVL; listed as Homo sapiens) [compound 102] | “+++” (≥50 = +++)
103 (TLAEEVVAL; listed as Homo sapiens) [compound 103] | “+++” (≥50 = +++)
104 (STMEQNFLL; listed as Homo sapiens) [compound 104] | “++++” (≥75% = ++++)
106 (LLYDAVHIVSV; listed as Homo sapiens) [compound 106] | “+++” (≥50 = +++)
107 (FLQPVDDTQHL; listed as Homo sapiens) [compound 107] | “+++” (≥50 = +++)
108 (ALFPGVALLLA; listed as Homo sapiens) [compound 108] | “++++” (≥75% = ++++)

Substance | Peptide exchange
109 (IILSILEQA; listed as Homo sapiens) [compound 109] | “++++” (≥75% = ++++)
110 (FLSQVDFEL; listed as Homo sapiens) [compound 110] | “+++” (≥50 = +++)
111 (YVWGFYPAEV; listed as Homo sapiens) [compound 111] | “+++” (≥50 = +++)
114 (SLVGEPILQNV; listed as Homo sapiens) [compound 114] | “++” (≥20% = ++)
115 (AIAGAGILYGV; listed as Homo sapiens) [compound 115] | “++” (≥20% = ++)
116 (YHIDEEVGF; listed as Homo sapiens) [compound 116] | “+” (≥10% = +)
117 (ILPDGEDFLAV; listed as Homo sapiens) [compound 117] | “+++” (≥50 = +++)
119 (FLYIGDIVSL; listed as Homo sapiens) [compound 119] | “++++” (≥75% = ++++)
120 (ALLGIPLTLV; listed as Homo sapiens) [compound 120] | “+++” (≥50 = +++)
121 (GVVDPRAISVL; listed as Homo sapiens) [compound 121] | “++” (≥20% = ++)
122 (FLLAEDDIYL; listed as Homo sapiens) [compound 122] | “+++” (≥50 = +++)
123 (NLWDLTDASVV; listed as Homo sapiens) [compound 123] | “+++” (≥50 = +++)
124 (ALYETELADA; listed as Homo sapiens) [compound 124] | “++” (≥20% = ++)
125 (VQIHQVAQV; listed as Homo sapiens) [compound 125] | “+++” (≥50 = +++)
126 (VLAYFLPEA; listed as Homo sapiens) [compound 126] | “++++” (≥75% = ++++)
127 (KIGDEPPKV; listed as Homo sapiens) [compound 127] | “++” (≥20% = ++)
128 (YLFDDPLSAV; listed as Homo sapiens) [compound 128] | “++” (≥20% = ++)
129 (GLLDGGVDILL; listed as Homo sapiens) [compound 129] | “+++” (≥50 = +++)
130 (FLWNGEDSALL; listed as Homo sapiens) [compound 130] | “+++” (≥50 = +++)
131 (FVPPVTVFPSL; listed as Homo sapiens) [compound 131] | “++” (≥20% = ++)

Second part, the substance after the results:

Peptide exchange | Substance
“+++” (≥50 = +++) | 132 (LLVEQPPLAGV; listed as Homo sapiens) [compound 132]
“++” (≥20% = ++) | 133 (KVLSNIHTV; listed as Homo sapiens) [compound 133]
“+++” (≥50 = +++) | 134 (YLQELIFSV; listed as Homo sapiens) [compound 134]
“+++” (≥50 = +++) | 135 (ALSEVDFQL; listed as Homo sapiens) [compound 135]
“+++” (≥50 = +++) | 136 (YLADPSNLFVV; listed as Homo sapiens) [compound 136]
“++++” (≥75% = ++++) | 137 (TLVLTLPTV; listed as Homo sapiens) [compound 137]
“+++” (≥50 = +++) | 138 (YQYPRAILSV; listed as Homo sapiens) [compound 138]
“+++” (≥50 = +++) | 139 (SVMEVNSGIYRV; listed as Homo sapiens) [compound 139]
“++” (≥20% = ++) | 140 (YMDAPKAAL; listed as Homo sapiens) [compound 140]
“+++” (≥50 = +++) | 142 (FLFATPVFI; listed as Homo sapiens) [compound 142]
“+++” (≥50 = +++) | 144 (YIMEPSIFNTL; listed as Homo sapiens) [compound 144]
“++” (≥20% = ++) | 145 (FLATSGTLAGI; listed as Homo sapiens) [compound 145]
“++” (≥20% = ++) | 146 (SLATAGDGLIEL; listed as Homo sapiens) [compound 146]
“+++” (≥50 = +++) | 147 (SLLEAVSFL; listed as Homo sapiens) [compound 147]
“++” (≥20% = ++) | 148 (ALNPEIVSV; listed as Homo sapiens) [compound 148]
“+++” (≥50 = +++) | 149 (NLLELFVQL; listed as Homo sapiens) [compound 149]
“+++” (≥50 = +++) | 151 (KILQQLVTL; listed as Homo sapiens) [compound 151]
“+++” (≥50 = +++) | 152 (ILFEDIFDV; listed as Homo sapiens) [compound 152]
